Laboratory results: US20080005813A1, “Polypeptide Having Function of Cinnamyl Alcohol Dehydrogenase, Polynucleotide Encoding the Polypeptide and Those Uses” (GENOMINE, INC., priority 2005, published 2008)

B1: AtCAD-H protein (cinnamyl alcohol dehydrogenase) (Arabidopsis thaliana) (protein)
chain: MANSGEGKVVCVTGASGYIASWLVKFLLSRGYTVKASVRDPSDPKKTQHLVSLEGAKERLHLFKADLLEQGSFDSAIDGCHGVFHTASPFFNDAKDPQAELIDPAVKGTLNVLNSCAKASSVKRVVVTSSMAAVGYNGKPRTPDVTVDETWFSDPELCEASKMWYVLSKTLAEDAAWKLAKEKGLDIVTINPAMVIGPLLQPTLNTSAAAILNLINGAKTFPNLSFGWVNVKDVANAHIQAFEVPSANGRYCLVERVVHHSEIVNILRELYPNLPLPERCVDENPYVPTYQVSKDKTRSLGIDYIPLKVSIKETVESLKEKGFAQF

Columns and labels:
[1] = biological target: AtCAD-H protein (cinnamyl alcohol dehydrogenase) (Arabidopsis thaliana, UniProt F4K152); assay: Enzyme activity of purified AtCAD-H protein, backward reaction (Lineweaver-Burk); format: biochemical; settings: substrate coniferyl alcohol, NADPH^+ in place of NADPH, Tris-HCl pH 9.3, 37° C.
Experimental: (§1) In order to identify whether the isolated protein has the cinnamyl alcohol dehydrogenase function related to lignin biosynthesis, the enzyme activity in forward reaction was measured using coniferaldehyde as a substrates. Also, the enzyme activity in backward reaction was measured using coniferyl alcohol as a substrates so as to identify whether the enzyme also involves in backward reaction or not.
(§2) The enzyme activities were measured at 405 nm using a microplate reader (Bio-rad Backman Microplate Reader) adjusted at 37° C. according to the method of Mitchell et al. (Mitchell et al. Planta, 208: 31-47, 1998). In […] of the reaction solution for the measurement of the enzyme activity in forward reaction, 100 mM Tris-buffer (Tris-HCl pH 9.3), […], and 2-3 μg of the protein purified in Example 2-2 were contained. The conditions of the reaction solution for the measurement of the enzyme activity in backward reaction is the same as that of the reaction solution of forward reaction, except that 100 mM NADPH^+ was contained in place of 100 mM NADPH. […]
(§3) Meanwhile, the enzyme activity of the purified protein was suitable for Michaelis-Menten kinetics for 100 mM coniferyl alcohol, that is, the substrate of backward reaction. The reaction velocities were measured according to variation of substrate concentration, and represented in a Lineweaver-Burk's plot (see FIG. 2b). […]

[2] = substrate: COc1cc(/C=C/C=O)ccc1O; assay: Enzyme activity of purified AtCAD-H protein, forward reaction (Lineweaver-Burk); format: biochemical, Arabidopsis thaliana; settings: other: forward reaction, substrate coniferaldehyde, NADPH, Tris-HCl pH 9.3, 37° C., 405 nm
Experimental: as §1, §2
The enzyme activity of the purified protein was suitable for Michaelis-Menten kinetics for 100 mM coniferaldehyde, that is, the substrate of forward reaction. The reaction velocities were measured according to variation of substrate concentration, and represented in a Lineweaver-Burk's plot (see FIG. 2a).

[3] = substrate: COc1cc(/C=C/CO)ccc1O; assay: Enzyme activity of purified AtCAD-H protein, backward reaction (Lineweaver-Burk); format: biochemical, Arabidopsis thaliana; settings: other: backward reaction, substrate coniferyl alcohol, NADPH^+ in place of NADPH, Tris-HCl pH 9.3, 37° C.
Experimental: as §1, §2, §3

Molecule	Vmax [1]	Km [2] [µM]	Km [3] [µM]
COc1cc(/C=C/CO)ccc1O [coniferyl alcohol]	0.102	–	–
B1	–	19.8	374
